One may read the Kd as the equilibrium constant for the complex coming apart.

From publication PMC11883000, “Structure-function relationship of ASH1L and histone H3K36 and H3K4 methylation” (Nature Communications, 2025) come the findings set out here.

Assay [1] deals with T1, ASH1L plant homeodomain (PHD) finger, wild type (aa 2579-2629) (human, UniProt Q9NR48 2579-2629).
T1 construct: ASH1L, human, PHD finger, aa 2579-2629; 15N-labelled for NMR; also called ASH1LPHD; ASH1L PHD; source: E. coli BL21 or Rosetta2 (DE3) pLysS, purified (glutathione agarose, SEC)
In words: NMR titration; 1H,15N HSQC chemical shift perturbation; unlabelled ligand (histone peptide or ASH1LSET) added to 0.1-0.2 mM 15N-labelled protein; 298 K; 25 mM Tris pH 7.5, 150 mM NaCl, 5 mM DTT. The conditions noted are these: both partners purified.

Assay [2] concerns the target T2, ASH1L tandem bromodomain-PHD finger (aa 2436-2638) (human, UniProt Q9NR48 2436-2638).
T2 construct: ASH1L, human, bromodomain and PHD finger, aa 2436-2638 (NMR structure sample); 13C/15N-labelled and 75% deuterated; The protein expression section lists ASH1L_(BD-PHD) as aa 2430-2629 (GST fusion, E. coli); the NMR structure section gives aa 2436-2638; also called ASH1L_(BD-PHD)
In words: NMR solution structure; 0.5 mM ASH1L_(BD-PHD) with H3K4me2 peptide (aa 1-15); 298 K; 200 mM sodium phosphate pH 6.3, 5 mM DTT. The conditions noted are these: both partners purified.

Ends that are not written are not given here. Me2 = dimethylation (dimethyl-lysine)

Consider ARTK(Me)QTARKSTG (peptide, UniProt P68431 2-13, looked up, histone H3, residues 1-12) [histone H3K4me1 peptide (aa 1-12 of H3)], for which the dissociation constant Kd in assay [1] turned out to be 119 µM. Still for that read-out and setting: in the case of ARTKQTARKSTG (peptide, UniProt P68431 2-13, looked up, histone H3, residues 1-12) [histone H3K4me0 (unmodified) peptide (aa 1-12 of H3)] it was 1900 µM. Regarding ARTK(Me2)QTARKSTGGKA (peptide, UniProt P68431 2-16, looked up, histone H3, residues 1-15) [histone H3K4me2 peptide (aa 1-15 of H3)], in assay [2], the binding result was “binds”.
